Reference: paper PMC4324565

Target: biotinylated gp120 165-182 peptide (HIV-1 (AE.A244))
Assay: BLI

B1: CH59 unmutated ancestor (CH59-UA) Fab (Fab, V domains shown)
VH: EVQLVESGGGLVQPGRSLRLSCAASGFTFDDYAMHWVRQAPGKGLEWVSGISWNSGSIGYADSVKGRFTISRDNAKNSLYLQMNSLRAEDTALYYCAKDSPRGELPFDYWGQGTLVTVSS
VL: SYELTQPPSVSVSPGQTARITCSGDALPKKYAYWYQQKSGQAPVLVIYEDSKRPSGIPERFSGSSSGTMATLTISGAQVEDEADYYCYSTDSSGNHRVFGGGTKLTVL
**Q.** B1 was tested. Which Kd did it give?
**A.** 500 nM
